The chains are these.
B1: MOR03790 Fab (Fab, V domains shown)
VH: QVELVQSGAEVKKPGSSVKVSCKASGGTFSSYGISWVRQAPGQGLEWMGGIIPIFGTANYAQKFQGRVTITADESTSTAYMELSSLRSEDTAVYYCARYDGIYGELDFWGQGTLVTVSS
VL: not shown
B2: MOR03850 IgG1 (antibody)
chain 1: B1 VH with G50A, I52N, I54L, F55A, T57H, A58T, N59H
chain 2: not shown
modifications: not checked
B3: MOR03790 IgG1 (antibody, V domains shown)
VH: B1 VH
VL: not shown
B4: MOR03850 Fab (Fab, V domains shown)
VH: B1 VH with G50A, I52N, I54L, F55A, T57H, A58T, N59H
VL: not shown
B5: MOR03781 Fab (Fab, V domains shown)
VH: B1 VH
VL: not shown
B6: MOR03781 IgG1 (antibody, V domains shown)
VH: B1 VH
VL: not shown
B7: MOR03754 Fab (Fab)
chain 1: QVQLVESGGGLVQPGGSLRLSCAASGFTFRSYGMSWVRQAPGKGLEWVSSIEHKWSGYATTYAASVKGRFTISRDNSKNTLYLQMNSLRAEDTAVYYCARFEFTPWTYFDFWGQGTLVTVSS
chain 2: DIELTQPPSVSVAPGQTARISCSGDNLGKKYVYWYQQKPGQAPVLVIYDDDNRPSGIPERFSGSNSGNTATLTISGTQAEDEADYYCQSYTAQSSASFGGGTKLTVL
modifications: not checked

Changes are numbered by the printed parent chain.

T1 sequence (P13500 other isoform, or with tags, fused parts or gaps, form in doubt): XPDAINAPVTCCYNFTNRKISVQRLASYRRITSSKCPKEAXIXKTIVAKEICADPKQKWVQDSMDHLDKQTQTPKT
cynomolgus monkey MCP-1 (cynomolgus monkey), P61274, sequence (P61274 24-99 limits assumed): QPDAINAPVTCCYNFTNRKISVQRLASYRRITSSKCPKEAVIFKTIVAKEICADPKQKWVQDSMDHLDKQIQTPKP

One experiment has as its target T1, human monocyte chemoattractant protein-1 (MCP-1) (human), P13500. The experiment can be described thus: cell-based or functional assay.
The molecule B1 yielded an Inhibition of Ca2+ Mobilization IC50 of 25 nM.
In turn, B2 registered an Inhibition of Ca2+ Mobilization IC50 of 9.47 nM.
On the same count and under the same terms, to B3 belongs 4.26 nM; to B4, 28.4 nM; to B5, 21.8 nM.
As for B6, the Inhibition of Ca2+ Mobilization IC50 is 10.9 nM.

Another experiment concerns the target T1, human monocyte chemoattractant …. Put plainly: SET, BioVeris, IgG1, rh MCP-1.
For B2, the equilibrium dissociation constant (Kd) is 0.011 nM.
Same read-out and setting: then B3, with 0.07 nM.
The molecule B6 returned a Kd of 0.02 nM.

For a further experiment the target is unchanged. Put plainly: 125I-MCP-1 binding to THP-1 cells, radio-ligand competition.
The molecule B1 returned a concentration for half-maximal inhibition (IC50) of 0.26 nM.
Molecule B2 registered a concentration for half-maximal inhibition (IC50) of 0.05 nM.
In the case of B3, the IC50 came to 0.03 nM.
As for B4, the IC50 was 0.16 nM.
Regarding B5, the IC50 worked out at 0.18 nM.
Take B6: the concentration for half-maximal inhibition (IC50) was 0.02 nM.

A further experiment has as its target T2, human MCP-2 (human), P80075.
T2 chain: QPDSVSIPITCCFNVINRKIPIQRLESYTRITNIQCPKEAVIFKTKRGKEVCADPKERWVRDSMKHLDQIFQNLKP
Put plainly: 125I-MCP-2 binding to CCR2 on THP-1 cells, radio-ligand competition.
Turning to B7, the IC50 was > 2000 nM.

A further experiment addresses T1, human monocyte chemoattractant …. The experiment can be described thus: SET, IGEN (BioVeris).
On to B1, for which the Kd amounted to 0.12 nM.
The molecule B2 had a dissociation constant Kd of 0.01 nM.
Consider B3, for which the Kd was found to be 0.07 nM.
Molecule B4 registered a Kd of 0.04 nM.
Consider B5, for which the dissociation constant (Kd) came to 0.03 nM.
In the case of B6, the Kd is 0.02 nM.

A further experiment addresses cynomolgus monkey MCP-1 (cynomolgus monkey), P61274. Put plainly: SET, BioVeris, IgG1, cyno MCP-1.
B2: the Kd is 0.021 nM.

For another experiment the target is unchanged. Put plainly: SET, BioVeris, cyno MCP-1.
In the case of B2, the Kd was 0.01 nM.

The next experiment addresses T1, human monocyte chemoattractant …. The experiment can be described thus: SET, BioVeris, Fab, rh MCP-1.
With B1, the dissociation constant Kd was 0.12 nM.
The molecule B4 yielded a dissociation constant (Kd) of 0.04 nM.
B5: the Kd stood at 0.03 nM.

The record behind these values is patent EP1888114B1.
